This note sets out measurements from US20100248978.

In the series the target is T1, p-hydroxyphenylpyruvate dioxygenase (HPPD) (Arabidopsis thaliana) (UniProt P93836).
T1 sequence: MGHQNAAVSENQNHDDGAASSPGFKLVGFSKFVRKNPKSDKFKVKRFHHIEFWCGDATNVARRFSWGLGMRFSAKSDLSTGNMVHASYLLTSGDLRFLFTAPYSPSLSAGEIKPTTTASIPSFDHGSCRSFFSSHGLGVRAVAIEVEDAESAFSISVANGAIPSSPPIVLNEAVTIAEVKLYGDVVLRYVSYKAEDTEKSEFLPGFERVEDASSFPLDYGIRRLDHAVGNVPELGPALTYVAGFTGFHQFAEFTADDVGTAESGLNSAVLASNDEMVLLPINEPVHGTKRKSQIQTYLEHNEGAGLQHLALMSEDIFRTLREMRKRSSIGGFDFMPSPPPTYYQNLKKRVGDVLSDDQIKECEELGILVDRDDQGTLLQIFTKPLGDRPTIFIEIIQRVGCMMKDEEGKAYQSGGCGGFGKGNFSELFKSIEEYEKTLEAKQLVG
Briefly: filter. The settings on record: 500 nM HPPD, 10% DMSO.

Sequence “GGGAGAGGAGGGAGAUAGAUAUCAANNNNNNNNNNNNNNNNNNNNNNNNNNNNNNNNNNNNNNNNNNNNNNNAGUUUGUCCUCACGGUGGAUGG [S115B enriched library (cycle 9)]” gave a binding signal (% RNA retained) of 10.
